# In patent US20240010720A1 (IOMX THERAPEUTICS, published 2024):
# Read-outs that look alike come from different tables or passages of the source.
# T1: murine IGSF11 on cells (mouse, UniProt P0C673 23-428)
# T1 construct: UniProt P0C673; also called MC38-IGSF11 (murine); CT26-IGSF11 (murine)
# T1 sequence: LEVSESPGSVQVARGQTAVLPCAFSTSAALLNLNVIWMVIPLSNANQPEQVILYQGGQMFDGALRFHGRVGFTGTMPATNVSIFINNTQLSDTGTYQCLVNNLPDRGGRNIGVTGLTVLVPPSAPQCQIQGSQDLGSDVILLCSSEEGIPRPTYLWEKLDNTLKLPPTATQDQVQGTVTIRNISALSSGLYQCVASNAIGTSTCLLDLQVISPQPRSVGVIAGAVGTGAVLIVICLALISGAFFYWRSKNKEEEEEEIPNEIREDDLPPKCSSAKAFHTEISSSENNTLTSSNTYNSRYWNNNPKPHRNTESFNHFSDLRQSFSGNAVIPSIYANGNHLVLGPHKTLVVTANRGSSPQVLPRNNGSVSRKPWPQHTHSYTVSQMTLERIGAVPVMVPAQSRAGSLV
# T2: recombinant human IGSF11 (VSIG3) extracellular domain (ECD) (human, UniProt Q5DX21 23-241, biotinylated where captured on streptavidin)
# T2 construct: also called biotinylated recombinant ECD-IGSF11; IGSF11 (ECD domain)
# T2 sequence: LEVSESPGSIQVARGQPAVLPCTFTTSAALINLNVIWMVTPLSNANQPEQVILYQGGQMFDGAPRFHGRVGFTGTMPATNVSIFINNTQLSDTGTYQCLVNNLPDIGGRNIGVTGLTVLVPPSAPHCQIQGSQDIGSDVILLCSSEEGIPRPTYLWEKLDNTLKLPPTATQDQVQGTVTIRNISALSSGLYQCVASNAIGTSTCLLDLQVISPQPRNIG
# T3: IGSF11 ECD fused to murine-Fc (human; mouse, UniProt Q5DX21 23-241)
# T3 construct: also called Fc-fusion IGSF11 ECD; full-length ECD of IGSF11; not shown: murine Fc
# T3 sequence: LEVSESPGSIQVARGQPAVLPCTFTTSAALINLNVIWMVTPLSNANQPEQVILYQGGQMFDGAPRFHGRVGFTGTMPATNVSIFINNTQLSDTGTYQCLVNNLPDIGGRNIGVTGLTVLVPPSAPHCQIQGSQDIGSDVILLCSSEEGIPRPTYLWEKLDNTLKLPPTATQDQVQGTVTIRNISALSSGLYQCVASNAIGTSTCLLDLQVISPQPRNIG
# T4: IgC2 domain of human IGSF11 fused to murine IgG2a Fc-region (human; mouse, UniProt Q5DX21 137-241)
# T4 construct: also called IgC2-like domain mFc fusion; not shown: murine IgG2a Fc-region
# T4 sequence: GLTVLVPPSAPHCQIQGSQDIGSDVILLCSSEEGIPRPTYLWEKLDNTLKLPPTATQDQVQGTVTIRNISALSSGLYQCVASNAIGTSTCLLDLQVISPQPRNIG
# T5: His-tagged extracellular domain (ECD) of human IGSF11 (VSIG3) (human, UniProt Q5DX21 23-241)
# T5 construct: partly bought (SinoBiological 13094-H08H); also called IGSF11-HIS; HIS-IGSF11; not shown: HIS6 tag
# T5 sequence: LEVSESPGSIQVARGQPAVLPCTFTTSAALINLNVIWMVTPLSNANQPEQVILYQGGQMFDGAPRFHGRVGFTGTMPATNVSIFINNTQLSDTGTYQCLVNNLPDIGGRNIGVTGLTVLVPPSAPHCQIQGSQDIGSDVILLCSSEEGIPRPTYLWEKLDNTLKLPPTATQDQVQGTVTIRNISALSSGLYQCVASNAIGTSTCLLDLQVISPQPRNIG
# B1: human IGSF11 (VSIG3) on cells (receptor)
# chain: LEVSESPGSIQVARGQPAVLPCTFTTSAALINLNVIWMVTPLSNANQPEQVILYQGGQMFDGAPRFHGRVGFTGTMPATNVSIFINNTQLSDTGTYQCLVNNLPDIGGRNIGVTGLTVLVPPSAPHCQIQGSQDIGSDVILLCSSEEGIPRPTYLWEKLDNTLKLPPTATQDQVQGTVTIRNISALSSGLYQCVASNAIGTSTCLLDLQVISPQPRNIGLIAGAIGTGAVIIIFCIALILGAFFYWRSKNKEEEEEEIPNEIREDDLPPKCSSAKAFHTEISSSDNNTLTSSNAYNSRYWSNNPKVHRNTESVSHFSDLGQSFSFHSGNANIPSIYANGTHLVPGQHKTLVVTANRGSSPQVMSRSNGSVSRKPRPPHTHSYTISHATLERIGAVPVMVPAQSRAGSLV
# Legend:
# murine IGSF11 on cells [1] = target: T1, murine IGSF11 on cells; assay: FACS, MC38-IGSF11 cells, IgG
# Source text: (§1) Unbound antibodies were removed by washing the cells three time with FACS buffer. Bound antibodies were detected with a mouse anti-human IgG antibody conjugated with AlexaFluor647.
# [2] = target: T2, recombinant human IGSF11 (VSIG3) …; assay: BLI, apparent affinity, IgG captured, IGSF11 ECD 100 nM
# Source text: Briefly, various APBs were loaded on an optical biosensor via a commercially available Capture System (AHC sensors, ForteBio).
# murine IGSF11 on cells [3] = target: T1, murine IGSF11 on cells; assay: FACS, CT26-IGSF11 cells, IgG
# Source text: as §1
# [4] = target: T3, IGSF11 ECD fused to murine-Fc; assay: ELISA, IgG
# [5] = target: T4, IgC2 domain of human IGSF11 fused to …; assay: ELISA, IgG
# [6] = target: B1; assay: FACS, MDA-MB-231-IGSF11 cells, IgG
# Source text: as §1
# [7] = target: B1; assay: FACS, IgG1-format antibodies; DMS 273 cells (D) treated with IGSF11 siRNA (KD)
# [8] = target: T2, recombinant human IGSF11 (VSIG3) …; assay: SPR, IgG1
# [9] = target: T5, His-tagged extracellular domain (ECD) …; assay: blocking ELISA: antibody pre-incubated with His-tagged IGSF11 ECD, complexes added to immobilised VSIR-Fc; y axis % remaining IGSF11 binding to VSIR, x axis nM IgG per legend
# [10] = target: T5, His-tagged extracellular domain (ECD) …; assay: ELISA: IgG1-format antibody titrated on coated His-tagged IGSF11; x axis nM IgG, y axis absorbance per legend
# [11] = target: B1; assay: FACS, HEK cells expressing IGSF11
# [12] = target: B1; assay: FACS, IgG1-format antibodies; CL-11 cells (C), a line that does not express IGSF11 (specificity control), scrambled control siRNA (SC)
# [13] = target: B1; assay: FACS, DMS 273 cells
# [14] = target: B1; assay: FACS, IgG1-format antibodies; M579-A2-luc cells (M) treated with scrambled control siRNA (SC)
# [15] = target: B1; assay: FACS, IgG1-format antibodies; M579-A2-luc cells (M) treated with IGSF11 siRNA (KD)
# [16] = target: B1; assay: FACS, IgG1-format antibodies; CL-11 cells (C), a line that does not express IGSF11 (specificity control), IGSF11 siRNA (KD)
# [17] = target: B1; assay: FACS, IgG1-format antibodies; DMS 273 cells (D) treated with scrambled control siRNA (SC)
# [18] = target: T5, His-tagged extracellular domain (ECD) …; assay: blocking ELISA: antibody pre-incubated with His-tagged IGSF11 ECD, complexes added to immobilised VSIR-Fc; y axis % remaining IGSF11 binding to VSIR, x axis nM IgG per legend; remark: listed apart in the source
# [19] = target: T5, His-tagged extracellular domain (ECD) …; assay: ELISA, IgG1
# [20] = target: T6, scFv-Fc-format of antibody A-015; assay: FACS on monocytes (CD14 gate) from PBMC of healthy volunteer A, labelled secondary antibody; x axis IGSF11 signal
# T6 construct: scFv genetically fused to mouse IgG2A Fc; also called anti-IGSF11 scFv-Fc (mouse IgG2A)
# T6 sequence (VL, as listed by the source): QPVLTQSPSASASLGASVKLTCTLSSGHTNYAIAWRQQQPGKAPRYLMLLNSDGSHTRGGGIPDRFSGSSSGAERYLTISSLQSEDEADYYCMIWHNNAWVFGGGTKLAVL
binder,measurement,setting,value
"C-003 (IgG1 format) (antibody, V domains shown, wildtype human IgG1 and kappa or lambda constant regions) VH: not shown VL: ASVLTQPPSVSAAPGQKVTISCSGSSSNIGNNYVSWYQQLPGTAPKLLIYDNNKRPSGIPDRFSGSKSGTSATLGITGLQAEDEADYYCLSYTSSQYVFGGGTKLTVL",EC50,murine IGSF11 on cells [1],< 20 nM
same,Kd,[2],< 15 nM
same,EC50,murine IGSF11 on cells [3],< 20 nM
same,EC50,[4],< 1 nM
same,EC50,[5],< 1 nM
same,EC50,[6],10 to 15 nM
"B-002 (chain-swapped IgG1) (antibody, V domains shown, human IgG1 format; also called B2) VH: EVQLVESGGGLIQPGGSLRLSCAASGFTVSSNYMSWVRQAPGKGLEWVSVIYSGGSTYYADSVKGRFTISRDNSKNTLYLQMNSLRAEDTAVYYCARGNPYYYGDLQVNFDYWGQGTLVTVSS VL: QAVVTQEPSLTVSPGGTVTLTCASSTGAVTSGYYPNWFQQKPGQAPRALIYSTSNKHSWTPARFSGSLLGGKAALTLSGVQPEDEAEYYCLLYYGGAWVFGGGTKLTVL",percentage binding (FACS heat-map),[7],8.68%
same,Kd,[8],100 to 250 nM
same,IC50 (read off the curve),[9],~4 nM
same,EC50 (read off the curve),[10],~0.01 nM
same,EC50,[11],10 to 50 nM
same,percentage binding (FACS heat-map),[12],3%
same,EC50,[13],> 50 nM
same,percentage binding (FACS heat-map),[14],70.7%
same,percentage binding (FACS heat-map),[15],2.77%
same,percentage binding (FACS heat-map),[16],4.54%
same,percentage binding (FACS heat-map),[17],80.1%
"B-001 (chain-swapped IgG1) (antibody, V domains shown, human IgG1 format; also called B1) VH: EVQLLESGGGLIQPGGSLRLSCAVSGFTVSSNYMSWVRQAPGKGLEWVSVIYSGGSTYYADSVKGRFTISRDNSKNTLYLQMNSLRAEDTAVYYCARGNPYYYGDLQVNFDYWGQGTLVTVSS VL: QAVVTQEPSLTVSPGGTVTLTCASSTGAVTSAYYPNWFQQKPGQAPRALIYSTSNKHSWTPARFSGSLLGGKAALTLSGVQPEDEADYYCLLYYGGAWVFGGGTKLTVL",Kd,[8],250 to 500 nM
same,EC50,[11],10 to 50 nM
same,IC50 (read off the curve),[18],~2 nM
"B-004 (chain-swapped IgG1) (antibody, V domains shown, human IgG1 format; also called B4) VH: EVQLLESGGGLIQPGGSLRLSCAVSGFTVSSNYMSWVRQAPGKGLEWVSVIYSGGSTYYADSVKGRFTISRDNSKNTLYLQMNSLRAEDTAVYYCARGNPYYYGDLQVNFDYWGQGTLVTVSS VL: QAVVTQEPSLTVSPGGTVTLTCASSTGAVTSGYYPNWFQQKPGQAPRPLIYSTSNKHSWTPARFSGSLLGGKAALTLSGVQPDDEAEYYCLLYYGGDWVFGGGTKLTVL",IC50 (read off the curve),[9],~5 nM
same,EC50 (read off the curve),[10],~0.02 nM
"A-037 (IgG1 format) (antibody, V domains shown, human IgG1 format) VH: QVQLVQSGAEVKKPGASVKVSCKASGYTFTGYYMHWVRQAPGQGLEWMGWINPNSGNTGYAQKFQGRVTMTRNTSISTAYMELSSLRSEDTAVYYCARGGQQQLVLDDYWGQGTLVTVSS VL: NFMLTQPHSVSESPGKTVTISCTGSSGSIASNYVQWYQQRPGSAPTTVIYEDNQRPSGVPDRFSGSIDSSSNSASLTISGLKTEDEADYYCQSYDSSNQRVFGGGTKLTVL",binding result,[19],binds
"A-019 (IgG1 format) (antibody, V domains shown, human IgG1 format) VH: QVQLVQSGAEVKKPGASVKVSCKASGYTFTGYYMHWVRQAPGQGLEWMGWINPNSGNTGYAQKFQGRVTMTRNTSISTAYMELSSLRSEDTAVYYCARGGQQQLVLDDYWGQGTLVTVSS VL: not shown",binding result,[19],binds
B1,binding result,[20],binds
